According to US20240218071A1:
Values belong to the binder of their own block, whether it stands above or below them.

Legend:
[1] = target: human CD40 expressed on the cell surface (human) (UniProt P25942); assay: flow cytometry on CHO-K-huCD40 cells, APC anti-human IgG Fc secondary antibody
[2] = target: P17-Fc fusion protein (human CD40 extracellular domain fused to human IgG1 Fc) (human) (UniProt P25942); assay: ELISA on P17-Fc, positive control
[3] = target: P17-Fc fusion protein (human CD40 extracellular domain fused to human IgG1 Fc) (human) (UniProt P25942); assay: ELISA, unbiotinylated P17-Fc against titrated antibody
[4] = target: human CD40 expressed on the cell surface (human) (UniProt P25942); assay: blocking assay by flow cytometry: CHO-K-huCD40 cells with titrated antibody, then CD40L-biotin (200 ng/mL) and PE-streptavidin; blocked ligand CD40L
[5] = target: biotinylated P17-Fc fusion protein (human) (UniProt P25942); assay: ELISA, biotinylated P17-Fc against titrated antibody
[6] = target: P17-Fc fusion protein (human CD40 extracellular domain fused to human IgG1 Fc) (human) (UniProt P25942); assay: ELISA, P17-Fc against titrated antibody

P17-Fc fusion protein (human CD40 extracellular domain fused to human IgG1 Fc) (human), sequence (P25942 21-193 limits assumed): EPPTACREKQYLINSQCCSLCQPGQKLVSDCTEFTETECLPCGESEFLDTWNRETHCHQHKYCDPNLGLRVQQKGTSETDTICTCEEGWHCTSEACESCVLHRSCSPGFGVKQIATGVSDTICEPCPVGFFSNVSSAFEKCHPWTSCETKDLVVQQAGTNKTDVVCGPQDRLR
human CD40 expressed on the cell surface (human), sequence (P25942 21-277): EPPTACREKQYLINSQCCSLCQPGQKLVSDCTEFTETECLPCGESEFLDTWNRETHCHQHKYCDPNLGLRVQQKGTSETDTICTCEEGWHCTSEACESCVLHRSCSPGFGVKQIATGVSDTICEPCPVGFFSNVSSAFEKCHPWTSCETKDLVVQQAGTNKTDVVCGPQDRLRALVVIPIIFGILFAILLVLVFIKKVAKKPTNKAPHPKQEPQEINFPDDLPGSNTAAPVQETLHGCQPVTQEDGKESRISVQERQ
biotinylated P17-Fc fusion protein (human), sequence (P25942 21-193 limits assumed): as the sequence (P25942 21-193 limits assumed) above

- EC50 (read off the curve) [1]: 0.7 µg/mL
- EC50 [2]: 0.047 µg/mL
- EC50 (read off the curve) [3]: 0.08 µg/mL
- IC50 (read off the curve) [4]: 1 µg/mL
- EC50 (read off the curve) [5]: 0.08 µg/mL
- EC50 (read off the curve) [6]: 0.2 µg/mL
B1: Bleslumab (antibody, INN chains, looked up, V domains shown)
VH: QLQLQESGPGLLKPSETLSLTCTVSGGSISSPGYYGGWIRQPPGKGLEWIGSIYKSGSTYHNPSLKSRVTISVDTSKNQFSLKLSSVTAADTAVYYCTRPVVRYFGWFDPWGQGTLVTVSS
VL: AIQLTQSPSSLSASVGDRVTITCRASQGISSALAWYQQKPGKAPKLLIYDASNLESGVPSRFSGSGSGTDFTLTISSLQPEDFATYYCQQFNSYPTFGQGTKVEIK

- EC50 (read off the curve) [3]: 0.08 µg/mL
- EC50 (read off the curve) [5]: 0.08 µg/mL
- EC50 (read off the curve) [6]: 0.3 µg/mL
B2: Dacetuzumab (antibody, INN chains, looked up, V domains shown)
VH: EVQLVESGGGLVQPGGSLRLSCAASGYSFTGYYIHWVRQAPGKGLEWVARVIPNAGGTSYNQKFKGRFTLSVDNSKNTAYLQMNSLRAEDTAVYYCAREGIYWWGQGTLVTVSS
VL: DIQMTQSPSSLSASVGDRVTITCRSSQSLVHSNGNTFLHWYQQKPGKAPKLLIYTVSNRFSGVPSRFSGSGSGTDFTLTISSLQPEDFATYFCSQTTHVPWTFGQGTKVEIKR
